Test results: publication PMC11554226 (2024)

Biological target: receptor-binding domain (RBD) of SARS-CoV-2 prototype strain (SARS-CoV-2 prototype strain, UniProt P0DTC2)
Test: SPR

Row | Binder | Kd
1 | Tnb04-1 R50Q (nanobody-Fc) (Fc fusion) EVQLVESGGGLVQPGGSLRLSCAASGSISTLNVMGWYRQAPGKQRELVAQITLDGRPEYADSVKGRFTITKDGAQSTLYLQMNNLKPEDTAVYFCKLENGGFFYYWGQGTQVTVSS | 471 pM
2 | Tnb04-1 R56S (nanobody-Fc) (Fc fusion) EVQLVESGGGLVQPGGSLRLSCAASGSISTLNVMGWYRQAPGKQRELVARITLDGSPEYADSVKGRFTITKDGAQSTLYLQMNNLKPEDTAVYFCKLENGGFFYYWGQGTQVTVSS | 535 pM
